From patent US20250341522A1, “Treatment Strategies for Pancreatic Cancer Using Recombinant Acid Sphingomyelinase” (University of Cincinnati, priority 2024, published 2025)
“And” between values parts separate entries of the source, which are not always exact repeats. Equal values may be shown once. Read-outs that look alike come from different tables or passages of the source.

Legend:
KPC tumor cells = assay: Survival after i.p. injection of KPC tumor cells (Example 11); type: in vivo, mice; details: 50 000 KPC tumor cells i.p., rec. ASM i.p. twice daily for 2 weeks, starting 2 days after tumor injection; for Survival of individual subjects: anti-PD1 every 2nd day i.p. 250 μg/25 g where combined
Procedure: Group 1: 50 000 KPC tumor cells were i.p. injected and tumor development was determined. For this group, the subjects survived, respectively, for 27, 28, 28, 29, 30, and 31 days.
Group 2: Survival time was collected for subjects upon application of recombinant acid sphingomyelinase (i.p., twice daily, for 2 weeks, starting 2 days after tumor injection). For this group, the subjects survived, respectively, for 48, 55, 57, 60, 62, 65 and 70 days. The acid sphingomyelinase was injected for a longer time and i.p. in these experiments than in FIG. 11.
Group 3: Survival time was collected for subjects upon application of recombinant acid sphingomyelinase (i.p., twice daily, for 2 weeks, starting 2 days after tumor injection)+application of anti-PD1 antibodies (every 2nd day i.p., 250 μg/25 g). For this group, the subjects survived, respectively, for 75, 80, 85, 87, 90, 93 and 96 days. The half-life time of acid sphingomyelinase is rather short in mice (2 hrs, but much longer in humans with 2 weeks). Thus, the i.p. injection are not very sufficient and must be replaced by continuous infusion, which may allow complete elimination of the tumors.

PD1 on CD3 lymphocytes = assay: PD1 surface expression on CD3 lymphocytes by flow cytometry in KPC tumor mice (Example 12); type: in vivo; details: wildtype mice, KPC-PDAC (50 000 cells i.p.), 21 days; rec. ASM for 2 days with 4 i.p. injections/day; individual mice
Procedure: FIG. 12 is a graph showing the PDI expression on lymphocytes of tumor mice upon treatment with recombinant acid sphingomyelinase or solvent.
The PD1 expression on lymphocytes with/without treatment with recombinant acid sphingomyelinase was determined. The surface expression of PD1 on CD3 lymphocytes was determined by flow cytometry upon staining with FITC-anti-PD1 and APC-anti-CD3 antibodies, expressed as mean fluorescence in a.u. of PD1 in the CD3-positive cell population. Mice were i.p. injected with 50 000 KPC tumor cells, left for 21 days untreated or treated with recombinant acid sphingomyelinase for 2 days with 4 i.p. injections/day.

KPC cells = assay: Tumor growth in wt mice after peritoneal injection of KPC cells, gemcitabine plus recombinant ASM (Example 10, FIG. 11); type: in vivo; details: 0.75 mg/kg i.v. twice daily, 2 treatment cycles of 4 days each, in combination with gemcitabine; KPC tumor-injected wt mice
Procedure: FIG. 11 is a graph showing the results of wt mice that were treated with gemcitabine alone, gemcitabine plus recombinant ASM, or vehicle control after peritoneal injection of KPC cells. Recombinant ASM was administered twice daily at 0.75 mg/kg i.v. for two treatment cycles of 4 days each.
Since PDAC growth in ASM-tr mice. we determined the therapeutic potential of exogenous administration of recombinant ASM. We administered 0.75 mg/kg recombinant ASM i.v. twice daily to tumor-injected mice for 2 treatment cycles of 4 days each in combination with the standard treatment, i.e. gemcitabine. […] However, because the half-life of recombinant ASM is only 2 h, these studies must be repeated with continuous infusion of ASM.
Wt mice were treated with gemcitabine alone (“Group 1”), gemcitabine plus recombinant ASM (“Group 2”) or vehicle control after peritoneal injection of KPC cells (“Group 3”). Recombinant ASM was administered twice daily 0.75 mg/kg i.v. for two treatment cycles of 4 days each.

[1] = cited from earlier work
[2] = in humans; cited from earlier work

B1: recombinant ASM: recombinant acid sphingomyelinase (EC 3.1.4.12, SMPD1), a lysosomal hydrolase glycoprotein degrading sphingomyelin to phosphorylcholine and ceramide (protein, UniProt P17405 47-631, looked up)
Sphingomyelin …: LALSDSRVLWAPAEAHPLSPQGHPARLHRIVPRLRDVFGWGNLTCPICKGLFTAINLGLKKEPNVARVGSVAIKLCNLLKIAPPAVCQSIVHLFEDDMVEVWRRSVLSPSEACGLLLGSTCGHWDIFSSWNISLPTVPKPPPKPPSPPAPGAPVSRILFLTDLHWDHDYLEGTDPDCADPLCCRRGSGLPPASRPGAGYWGEYSKCDLPLRTLESLLSGLGPAGPFDMVYWTGDIPAHDVWHQTRQDQLRALTTVTALVRKFLGPVPVYPAVGNHESTPVNSFPPPFIEGNHSSRWLYEAMAKAWEPWLPAEALRTLRIGGFYALSPYPGLRLISLNMNFCSRENFWLLINSTDPAGQLQWLVGELQAAEDRGDKVHIIGHIPPGHCLKSWSWNYYRIVARYENTLAAQFFGHTHVDEFEVFYDEETLSRPLAVAFLAPSATTYIGLNPGYRVYQIDGNYSGSSHVVLDHETYILNLTQANIPGAIPHWQLLYRARETYGLPNTLPTAWHNLVYRMRGDMQLFQTFWFLYHKGHPPSEPCGTPCRLATLCAQLSARADSPALCRHLMPDGSLPEAQSLWPRPLFC
KPC tumor cells
  Survival of individual subjects: 48 days and 55 days and 57 days and 60 days and 62 days and 65 days and 70 days
KPC tumor cells; listed as Rec. ASM alone
  Survival of individual subjects: 48 days and 55 days and 57 days and 60 days and 62 days and 65 days and 70 days
KPC tumor cells; anti-PD1 every 2nd day i.p. where combined
  Avg. Survival: 59.6 days
PD1 on CD3 lymphocytes
  Surface expression of PD1 on CD3 lymphocytes, mean fluorescence of PD1 in the CD3-positive cell population: 138 a.u. and 129 a.u. and 125 a.u. and 118 a.u. and 131 a.u. and 115 a.u. and 141 a.u.
KPC cells
  tumor growth: delayed tumor growth
[1]; in mice
  half-life time of acid sphingomyelinase: 2 h
[1]; stated in mouse study of Example 10
  half-life of recombinant ASM: 2 h
[2]
  half-life time of acid sphingomyelinase: 2 weeks
